This is an account of results in the DeepSol protein solubility set.

A short description of the series: soluble on expression in E. coli; label from the status in PepcDB or PDB records.
For the sequence “MGSSHHHHHHSSGLVPRGSHMSNQEAIGLIDSGVGGLTVLKEALKQLPNERLIYLGDTARCPYGPRPAEQVVQFTWEMADFLLKKRIKMLVIACNTATAVALEEIKAALPIPVVGVILPGARAAVKVTKNNKIGVIGTLGTIKSASYEIAIKSKAPAIEVTSLACPKFVPIVESNQYRSSVAKKIVAETLQALQLKGLDTLILGCTHYPLLRPVIQNVMGSHVTLIDSGAETVGEVSMLLDYFDIAHTPEAPTQPHEFYTTGSAKMFEEIASSWLGIENLKAQQIHLGGNEND”, the “soluble on expression in E. coli” value is on record as “soluble”.

For the sequence “MGSSHHHHHHSSGLVPRGSHMYETYHSGWIECITGSMFSGKSEELIRRLRRGIYAKQKVVVFKPAIDDRYHKEKVVSHNGNAIEAINISKASEIMTHDLTNVDVIGIDEVQFFDDEIVSIVEKLSADGHRVIVAGLDMDFRGEPFEPMPKLMAVSEQVTKLQAVCAVCGSSSSRTQRLINGKPAKIDDPIILVGANESYEPRCRAHHIVAPSDNNKEEL”, the “soluble on expression in E. coli” value was “soluble”.

“MGSSHHHHHHSSGLVPRGSMAELSEEALLSVLPTIRVPKAGDRVHKDECAFSFDTPESEGGLYICMNTFLGFGKQYVERHFNKTGQRVYLHLRRTRRPKEEDPATGTGDPPRKKPTRLAIGVEGGFDLSEEKFELDEDVKIVILPDYLEIARDGLGGLPDIVRDRVTSAVEALLSADSASRKQEVQAWDGEVRQVSKHAFSLKQLDNPARIPPCGWKCSKCDMRENLWLNLTDGSILCGRRYFDGSGGNNHAVEHYRETGYPLAVKLGTITPDGADVYSYDEDDMVLDPSLAEHLSHFGIDMLKMQKTDKTMTELEIDMNQRIGEWELIQESGVPLKPLFGPGYTGIRNLGNSCYLNSVVQVLFSIPDFQRKYVDKLEKIFQNAPTDPTQDFSTQVAKLGHGLLSGEYSKPVPESGDGERVPEQKEVQDGIAPRMFKALIGKGHPEFSTNRQQDAQEFFLHLINMVERNCRSSENPNEVFRFLVEEKIKCLATEKVKYTQRVDYIMQLPVPMDAALNKEELLEYEEKKRQAEEEKMALPELVRAQVPFSSCLEAYGAPEQVDDFWSTALQAKSVAVKTTRFASFPDYLVIQIKKFTFGLDWVPKKLDVSIEMPEELDISQLRGTGLQPGEEELPDIAPPLVTPDEPKAPMLDESVIIQLVEMGFPMDACRKAVYYTGNSGAEAAMNWVMSHMDDPDFANPLILPGSSGPGSTSAAADPPPEDCVTTIVSMGFSRDQALKALRATNNSLERAVDWIFSHIDDLDAEAAMDISEGRSAADSISESVPVGPKVRDGPGKYQLFAFISHMGTSTMCGHYVCHIKKEGRWVIYNDQKVCASEKPPKDLGYIYFYQRVAS”: the “soluble on expression in E. coli” value is “soluble”.

Regarding “MGSSHHHHHHSSGLVPRGSTYKLTLIRHGESEWNKENRFTGWTDVSLSEQGVSEAIEAGRMLLEKGFKFDVVYTSVLKRAIMTTWTVLKELGNINCPIINHWRLNERHYGALQGLNKSETASKFGEDQVKIWRRSFDVPPPVLEKSDPRWPGNELIYKGICPSCLPTTECLKDTVERVKPYFEDVIAPSIMSGKSVLVSAHGNSLRALLYLLEGMTPEQILEVNIPTACPLVLELDDYLKVTKKYYLISEEELKAKMEAVANQGKAK”, the “soluble on expression in E. coli” value was “soluble”.

Regarding “MGSSHHHHHHSSGRENLYFQGEYDYTDFINYYDKFKVIVYNVLKKLPLNDEIRKPVIEYYLNCIDYNVKKGKHIRGKILVLISSLSSAYSNIKRDSIYLLGWVVEAIQALILIADDIMDSGKFRRGAPCWYIVHGQSNAINDIFFLKMLSLSLIFELSSVFGNDIVMKIQKIYNESIFFTVLGQHLDLSYFDLSKADKISERYFSMVEMKTSRYTFYMPVFFGLTLSEIQVSSAQLNLIEAILYKLGEFYQVHNDVSDYLFNDSNADDICRFKLTWPLQKSFEIADEEMKLKISENYGKNSSLVKDCYNLLKINEHYLEYQRNALDYLIKLVKDITDDSLQKVFIHLIHQISELITNSRSNADSNNSL”, the “soluble on expression in E. coli” value is reported as “soluble”.

Consider “MGSSHHHHHSSGENLYFQGHMKHGIYYSYWEHEWSAKFGPYIEKVAKLGFDIIEVAAHHINEYSDAELATIRKSAKDNGIILTAGIGPSKTKNLSSEDAAVRAAGKAFFERTLSNVAKLDIHTIGGALHSYWPIDYSQPVDKAGDYARGVEGINGIADFANDLGINLCIEVLNRFENHVLNTAAEGVAFVKDVGKNNVKVMLDTFHMNIEEDSFGDAIRTAGPLLGHFHTGESNRRVPGKGRMPWHEIGLALRDINYTGAVIMEPFVKTGGTIGSDIKVWRDLSGGADIAKMDEDARNALAFSRFVLGG”, for which the “soluble on expression in E. coli” value is reported as “soluble”.

As for “MGTETVSFKWEGKKVAQVNGVTAEKVWSVFSDFCNVQEWFPSVDTCYRVQGTDGVPGLIRYCSTTKTKEEGSRWAKEKLVKIDPIGRCLSYEILENNVGFRSYVATVQVTPVDGEDQVSRIEWSFVADPVDGWKKEDLESYVDFCLQHMANKMELNL”, the “soluble on expression in E. coli” value is reported as “soluble”.

As to “MGTHMYSEQGINNTINISTTSLTNATQLTVIGNNNSVYIGNNCKIVSSNIRLKGNNITLFIADDVEIMGLVCSLHSDCSLQIQAKTTMGNGEITIAEKGKISIGKDCMLAHGYEIRNTDMHPIYSLENGERINHGKDVIIGNHVWLGRNVTILKGVCIPNNVVVGSHTVLYKSFKEPNCVIAGSPAKIVKENIVWGRKMYHSTMYDDPTLNEFYK”, the “soluble on expression in E. coli” value is given as “soluble”.

As for “MGTITGEFTEHSAEAIAAMLSYIVQTEYEKKQLAKDTLQKYEEVVFLSQFANAVATCTGLQELIEVIRAEIRQVISVDEIFLYLYDQSQDSLTPLLYKTEESLQNFKAIEKIVERVLKLNQVEVIDDIQNDQDYLNQPSKIRSLLCYSLTVQNSIIGVLGLAHYQVKHFDSSDLNLFSTLTGQVAAAIRTAQYYETIKNYSQTLEIRLEHHHHHH”, the “soluble on expression in E. coli” value is listed as “not soluble”.

For “MGTSGCTVDTSRRDKVRMALPHAELEQARMDNLTRHVAQNFLREPQVVGEPNDSGVAVSQLLFEKSDTVVISDREIHHQLRAASIAVVAHAPMLLMDDTDRDAVQAEIGRLGARYILAIGDVGLPKTTGNVKVIPDSGSLTALGKLTSLQFRTQRIDVSNALSAVSRLDGTHPMWLLTNRQEKVQSSPSDGEVSAFPVQSRRDAGAAPQVIATQESGIAAVATARSYGASVTVMRFPDPRLNVESMRAVAGLSDQPLIALGSQFGTSQQLSERIELGERAPLALPHKTGLVFALRTLRARYLNDSDVSEHVDIPYGANYVRTIAHPLSSQDQQDWKAWADAINAQDGFVFIEIDAVHRDADEILDSVEEIVSQPSIGVILRNAAQVCARSPQSRQRIADRLMHWNSEVINHNGDQLGVVLEGVDILRGGVCGISPQELMGLGLAILPARGEHLGGDATVNSQLYWDDWFVAERESFQPTGTLRSPRLGLIIRD”, the “soluble on expression in E. coli” value is “not soluble”.

Consider “MGVANDSSPEYRWMSPHRLSDTVILGDCLYFNNIMSQLDLHQNWAPSVRLLNYFKNFNKETLLKIEENDYINSSFFQQKDKRFYPINDDFYHISTGGYGIVFKIDNYVVKFVFEATKLYSPMETTAEFTVPKFLYNNLKGDEKKLIVCAWAMGLNYKLTFLHTLYKRVLHMLLLLIQTMDGQELSLRYSSKVFLKAFNERKDSIKFVKLLSHFYPAVINSNINVINYFNRMFHFFEHEKRTNYEYERGNIIIFPLALYSADKVDTELAIKLGFKSLVQYIKFIFLQMSLLYIKIYELPCCDNFLHADLKPDNILLFDSNEPIIIHLKNKKFVFNERIKSALNDFDFSQVAGIINKKIKNNFKVEHNWYYDFHFFVHTLLKTYPEIEKDIEFSTALEEFIMCTKTDCDKYRLKVSILHPISFLEKFIMRDIFSDWINGGN”, for which the “soluble on expression in E. coli” value is recorded as “not soluble”.

On to “MGVDNFSTTKKMFTWEVPGERVITLMTAGNLATTQALISLLEERSKTPSERSPSILERPTMFEVARLVGATLKEVIADTAGTGQVASSQFKASVIVGGQVKGGLPTLFLIYPEGNFIEVTEDSPFFQIGEAKYGKPILVRAYDPDLSFEDTIRLLMVSFDSTIKANLSVGLPLDLQVYANDSFAIKEQSRVEADDAYFQSISERWGDALRKALSDLPPYKSLLEHHHHHH”, for which the “soluble on expression in E. coli” value is “not soluble”.

Regarding “MGVERIKAAFENGKKAFIPYVMGGDGGLEILKERIRFLDEAGASIVEIGIPFSDPVADGPTIQRAGKRALDSGVTVKGIFQALIEVRKEVQIPFVLMTYLNPVLAFGKERFIENCMEAGVDGIIVPDLPYEEQDIIAPLLREANIALIPLVTVTSPIERIKKITSESEGFVYAVTVAGVTGVRQNFKDEIHSYLEKVKSHTHLPVVAGFGISTKEHVEEMVTICDGVVVGSKVIELLENEKREEICEFIQATKQKEEA”, the “soluble on expression in E. coli” value is reported as “not soluble”.

On to “MGVFTFQDEYTSTIAPAKLYKALVTDADIIIPKAVETIQSVEIVEGNGGPGTIKKLTFIEGGESKYVLHKIEAIDEANLGYNYSIVGGVGLPDTIEKISFETKLVEGANGGSIGKVTIKIETKGDAQPNEEEGKAAKARGDAFFKAIESYLSAHPDYN”, for which the “soluble on expression in E. coli” value was “soluble”.

With “MGVISAYAVVHERAAIIDPGTAKGAEIILDEIDRSWNVEYICPTHIHIDHGGGAARLAKALDAKIIVHPRGVKHVVNPEKLWEASKAVLGEVAEIYGKPESIDESKVIAVEDEQEFDLGGERLKVFHAPGHAPHMLVYYLTNSKVLFPADAVGMCFGGVVFPLTPPPFDADAALKTLKRLKGLKVDYVAFTHYGVVELEHHHHHH”, the “soluble on expression in E. coli” value was “soluble”.

“MGVSLAKGGNVSLSKEAPGLTAVLVGLGWDVRTTTGTDYDLDASALLLDTSGKVLSDGHFVFYNNLTSPDGSVEHTGDNLTGEGEGDDEAVKVNLVAVPAEVDRIVFPVSIHDAENRGQSFGQVRNAFIRVVNQANNQELARYDLSEDASTETAMVFGELYRHGAEWKFRAVGQGYASGLAGIAADFGVNV”: the “soluble on expression in E. coli” value is on record as “not soluble”.

Turning to “MGVSRVLHVEGGTPLKGELRVYPAKNAALPILAASLLTPEPITLVEVPRLRDVEVMLELLAHLGTQYAWEGRTLHLQTPEIKSTHAPYELVGQMRASFIVWGALLARAGEGHVSMPGGCAFGFRPVDQHIKALEALGAEVWEEDGTFHARRTRPLSGRVVFDLPTVGGTEQAMLAVALGGEATLVQAAVEPEVVDLGHFLALLGAEVEGLGSPIVRIKGAPRLKGGTYRIIPDRIEAGTYLLAAAATRGSLTLEGVRPDHLDALLDKLWRSGHRLEVGEDWIRFRATPDPAPFHVEAREYPGFPTDLQPIATAYLATVPGQSTVVDRIYPDRFTHVGELARMGAELYLRDRILTVQGRRLHGAQVKALDIRAGGALVVAALSAEGASEIEGVYFLERGYEHLTERLQALGARVHLRESPVALAAD”, the “soluble on expression in E. coli” value is recorded as “soluble”.

Regarding “MGVYDYKNFGTADSKALFSDAMAITLYSYHNLDNGFAAGYQHNGFGLGLPATLVTALLGGTDSQGVIPGIPWNPDSEKLALDAVKKAGWTPITASQLGYDGKTDARGTFFGEKAGYTTAQVEILGKYDAQGHLTEIGIAFRGTSGPRENLILDSIGDVINDLLAAFGPKDYAKNYVGEAFGNLLNDVVAFAKANGLSGKDVLVSGHSLGGLAVNSMADLSGGKWGGFFADSNYIAYASPTQSSTDKVLNVGYENDPVFRALDGSTFTGASVGVHDAPKESATDNIVSFNDHYASTAWNLLPFSILNIPTWISHLPTAYGDGMNRIIESKFYDLTSKDSTIIVANLSDPARANTWVQDLNRNAETHKGSTFIIGSDSNDLIQGGSGNDYLEGRAGNDTFRDGGGYNVILGGAGNNTLDLQKSVNTFDFANDGAGNLYVRDANGGISITRDIGSIVTKEPGFLWGLFKDDVTHSVTASGLKVGSNVTQYDASVKGTNGADTLKAHAGGDWLFGLDGNDHLIGGVGNDVFVGGAGNDLMESGGGADTFLFNGAFGQDRVVGFTSNDKLVFLGVQGVLPNDDFRAHASMVGQDTVLKFGGDSVTLVGVALNSLSADGIVIA”, the “soluble on expression in E. coli” value is “soluble”.
